Earlier results in publication PMC2647589.

Target: MeTRH (UniProt P20396)
Sequence of UniProt P20396 (P20396 whole entry, looked up): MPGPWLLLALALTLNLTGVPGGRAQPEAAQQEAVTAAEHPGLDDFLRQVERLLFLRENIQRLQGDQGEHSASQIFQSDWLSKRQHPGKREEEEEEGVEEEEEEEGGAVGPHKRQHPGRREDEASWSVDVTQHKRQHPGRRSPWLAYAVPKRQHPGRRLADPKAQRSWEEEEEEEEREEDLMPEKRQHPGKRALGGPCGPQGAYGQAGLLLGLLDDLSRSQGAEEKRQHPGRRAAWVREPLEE

Kd: 2 nM
Substance: TRH receptor (from UniProt P21761)
